Laboratory results reported in patent publication US20190016794A1 (Boehringer Ingelheim, published 2019).
Each block holds one binder with its values, some of them ahead of it.

Assays:
recombinant human IL23 [1] = target: T1, recombinant human IL23 (human, UniProt P29460 23-328); test: cell-based or functional assay
T1 sequence 1: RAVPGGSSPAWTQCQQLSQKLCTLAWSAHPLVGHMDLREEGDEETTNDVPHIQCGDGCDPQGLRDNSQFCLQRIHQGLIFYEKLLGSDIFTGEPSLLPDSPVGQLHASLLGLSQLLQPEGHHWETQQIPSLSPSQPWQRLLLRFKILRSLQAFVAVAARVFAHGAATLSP
T1 sequence 2: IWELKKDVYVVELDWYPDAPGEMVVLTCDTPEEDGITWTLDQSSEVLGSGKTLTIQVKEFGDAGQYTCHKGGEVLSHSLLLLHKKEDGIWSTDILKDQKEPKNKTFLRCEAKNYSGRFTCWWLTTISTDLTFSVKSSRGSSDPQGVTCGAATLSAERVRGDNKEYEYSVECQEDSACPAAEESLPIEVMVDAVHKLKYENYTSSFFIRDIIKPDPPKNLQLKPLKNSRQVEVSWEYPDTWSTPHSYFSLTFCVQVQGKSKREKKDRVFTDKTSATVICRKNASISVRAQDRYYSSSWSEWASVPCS

human TNF-alpha [2] = target: T2, human TNF-alpha (human, UniProt P01375 77-233); test: cell-based or functional assay
T2 sequence (P01375 77-233 limits assumed): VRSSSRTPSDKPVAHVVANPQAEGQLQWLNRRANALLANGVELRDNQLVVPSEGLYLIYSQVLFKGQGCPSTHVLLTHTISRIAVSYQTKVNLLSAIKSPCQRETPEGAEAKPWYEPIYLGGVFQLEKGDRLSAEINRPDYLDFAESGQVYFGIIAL

cynomolgus TNF-alpha = cynomolgus TNF-alpha (cynomolgus, UniProt P79337 77-233, limits assumed); test: cell-based or functional assay
cynomolgus TNF-alpha, sequence (P79337 77-233 limits assumed): as the sequence (P01375 77-233 limits assumed) above, with L37V, R44T, T72N, R138L counted along it

human TNF-alpha [3] = target: T2, human TNF-alpha; test: cell-based or functional assay; remark: listed apart in the source
human TNF-alpha [4] = target: T2, human TNF-alpha; test: cell-based or functional assay; remark: listed apart in the source
human TNF-alpha [5] = target: T2, human TNF-alpha; test: cell-based or functional assay; remark: listed apart in the source
membrane bound TNF-alpha [6] = target: T3, membrane bound TNF-alpha; test: flow cytometry, mTNF-transfected Jurkat cells (geomean)
T3 construct: whole, on cells; also called mTNF; membrane expressed TNF-alpha
T3 sequence (P01375 whole entry): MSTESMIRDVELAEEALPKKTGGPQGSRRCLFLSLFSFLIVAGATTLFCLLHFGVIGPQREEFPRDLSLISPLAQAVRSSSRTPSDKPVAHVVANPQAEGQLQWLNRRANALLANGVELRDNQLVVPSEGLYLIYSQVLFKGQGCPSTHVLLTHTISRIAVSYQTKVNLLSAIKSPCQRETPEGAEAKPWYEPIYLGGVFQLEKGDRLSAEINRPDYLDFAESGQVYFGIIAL
Method: (§1) All reagents were prepared in flow cytometry staining buffer (BioLegend). Membrane expressed TNF-alpha transfected cell lines (Jurkat and CHO) and parental cell lines were harvested from tissue culture vessels, washed, counted and resuspended to 1×10̂6 cells/ml in flow cytometry staining buffer. One hundred microliters of the cell suspension was added to 96 well microtiter plates and placed on ice. Titrations of test compounds were prepared and 50 uL was added to the cells. After sixty minute incubation on ice, the cell+test compounds were washed and 50 uL of a secondary antibody (Jackson ImmunoResearch) was added. The samples were incubated in the dark, at 4 C, for 60 minutes, followed by washes. After a final wash the cells were resuspended in 60 uL of fixative (BD Bioscience). Median fluorescence was determined for each sample in a flow cytometer and plotted versus the concentration of the test sample. EC₅₀ values were calculated using the 4 Parameter Logistic enabled by the Excel add-in XLfit (Activity Base software, ID Business Solutions, Ltd.).

recombinant human IL23 [7] = target: T1, recombinant human IL23; test: cell-based or functional assay; remark: listed apart in the source
[8] = target: T4, recombinant cynomolgus IL23 (cynomolgus); test: cell-based or functional assay
T4 chain 1: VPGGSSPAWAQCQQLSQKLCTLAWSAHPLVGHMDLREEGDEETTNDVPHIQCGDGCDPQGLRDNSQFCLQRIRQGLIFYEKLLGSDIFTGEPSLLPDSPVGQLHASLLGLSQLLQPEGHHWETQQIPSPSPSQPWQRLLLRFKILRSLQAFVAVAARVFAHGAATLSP
T4 chain 2: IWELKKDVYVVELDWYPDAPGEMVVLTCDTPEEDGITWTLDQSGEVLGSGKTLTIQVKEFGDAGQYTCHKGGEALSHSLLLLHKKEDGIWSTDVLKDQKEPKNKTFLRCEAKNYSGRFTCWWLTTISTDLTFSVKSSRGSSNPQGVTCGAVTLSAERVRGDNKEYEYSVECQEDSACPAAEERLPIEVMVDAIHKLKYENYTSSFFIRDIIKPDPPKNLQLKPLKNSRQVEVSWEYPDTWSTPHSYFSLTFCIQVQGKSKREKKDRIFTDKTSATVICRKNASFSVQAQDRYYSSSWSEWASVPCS

recombinant human IL23 [9] = target: T1, recombinant human IL23; test: cell-based or functional assay; remark: listed apart in the source
membrane bound TNF-alpha [10] = target: T3, membrane bound TNF-alpha; test: flow cytometry, mTNF-transfected CHO cells (geomean)
Method: as §1

recombinant human IL23 [11] = target: T1, recombinant human IL23; test: cell-based or functional assay; remark: listed apart in the source
recombinant human IL23 [12] = target: T1, recombinant human IL23; test: cell-based or functional assay; remark: listed apart in the source
human TNF-alpha [13] = target: T2, human TNF-alpha; test: SPR (ProteOn XPR36), compound captured on goat anti-human IgG Fc, antigen injected
Method: (§2) SPR experiments were performed on a ProteOn XPR36 instrument (Bio Rad). A GLM chip was preconditioned with sequential injections of 60 sec of 0.5% SDS, 50 mM NaOH, and 100 mM HCl at a flow rate of 30 μl/min both vertical and horizontal directions. […] Goat-anti-human IgG (GAHA) Fc gamma (Invitrogen) at a concentration of 30 μg/ml in 10 mM, pH 5.0 sodium acetate buffer was immobilized to 8,000 resonance units on the activated GLM chip in 6 horizontal channels. The chip was finally deactivated with 1 M ethanolamine HCl in 6 horizontal channels. The prepared GAHA chip was rotated to vertical direction to capture test compounds, over 5 vertical channels and the last channel was used as a column reference. The captured chip was then rotated again to the horizontal direction for binding. […] The dissociation was allowed for 2 hour. […] The regenerated GAHA was ready for another binding cycle.

Linked human IL-23 = target: T5, Linked human IL-23 (human, UniProt P29460 23-328); test: SPR (ProteOn XPR36), compound captured on goat anti-human IgG Fc, linked human IL-23 injected at 0.625-10 nM
T5 construct: Printed as 'Linked human IL-23 (Boehringer Ingelheim Pharmaceuticals, Inc)' in the SPR method
T5 sequence 1: T1 sequence 1
T5 sequence 2: T1 sequence 2
Method: as §2

recombinant human IL23 [14] = target: T1, recombinant human IL23; test: cell-based or functional assay; remark: listed apart in the source

Dual Phospho DB-pSTAT3 IC50 (recombinant human IL23 [1]): 210 pM
Dual Phospho DB-pSTAT3 IC90 (recombinant human IL23 [1]): 580 pM
Dual Phospho Jurkat-pNf-Kb IC50 (human TNF-alpha [2]): 210 pM
Dual Phospho Jurkat-pNf-Kb IC90 (human TNF-alpha [2]): 740 pM
HeLa IL8 Cyno-TNF IC50 (cynomolgus TNF-alpha): 0.3 nM
HeLa IL8 Cyno-TNF IC90 (cynomolgus TNF-alpha): 0.97 nM
HeLa IL8 Hi-Hu-TNF IC50 (human TNF-alpha [3]): 0.43 nM
HeLa IL8 Hi-Hu-TNF IC90 (human TNF-alpha [3]): 0.76 nM
HeLa IL8 Lo-Hu-TNF IC50 (human TNF-alpha [3]): 0.0099 nM
HeLa IL8 Lo-Hu-TNF IC90 (human TNF-alpha [3]): 0.043 nM
TNF-IL8 Whole Blood IC50 (human TNF-alpha [5]): 0.32 nM
TNF-IL8 Whole Blood IC90 (human TNF-alpha [5]): 0.47 nM
EC50 (membrane bound TNF-alpha [6]): 0.27 nM
huIL23 MSA IC50 (recombinant human IL23 [7]): 0.21 nM
huIL23 MSA IC90 (recombinant human IL23 [7]): 2.2 nM
CynoIL23 MSA IC50 [8]: 0.12 nM
CynoIL23 MSA IC90 [8]: 0.8 nM
IL23A pSTAT3 (MG) IC50 (recombinant human IL23 [9]): 160 pM
IL23A pSTAT3 (MG) IC90 (recombinant human IL23 [9]): 650 pM
EC50 (membrane bound TNF-alpha [10]): 0.77 nM
hIL23 pSTAT3 DB assay IC50 (recombinant human IL23 [11]): 300 pM
hIL23 pSTAT3 DB assay IC90 (recombinant human IL23 [11]): 720 pM
B1: Compound O (bispecific antibody)
chain 1: not shown
chain 2: EIVLTQSPATLSLSPGERATLSCRASQSVYSYLAWYQQKPGQAPRLLIYDASNRATGIPARFSGSGSGTDFTLTISSLEPEDFAVYYCQQRSNWPPFTFGPGTKVDIKGGGSGGGGQVQLVQSGAEVKKPGSSVKVSCKASGYTFTDQTIHWMRQAPGQGLEWIGYIYPRDDSPKYNENFKGKVTITADKSTSTAYMELSSLRSEDTAVYYCAIPDRSGYAWFIYWGQGTLVTVSSLGGGSGRTVAAPSVFIFPPSDEQLKSGTASVVCLLNNFYPREAKVQWKVDNALQSGNSQESVTEQDSKDSTYSLSSTLTLSKADYEKHKVYACEVTHQGLSSPVTKSFNRGEC
notes: GS linkers, isotype IgG1KO; counterpart of Compound E without YTE; also called Compound 0
L929 TNF Cytotox IC50 (human TNF-alpha [4]): 0.0042 nM
L929 TNF Cytotox IC90 (human TNF-alpha [4]): 0.016 nM

Dual Phospho DB-pSTAT3 IC50 (recombinant human IL23 [1]): 230 pM
Dual Phospho DB-pSTAT3 IC90 (recombinant human IL23 [1]): 770 pM
Dual Phospho Jurkat-pNf-Kb IC50 (human TNF-alpha [2]): 260 pM
Dual Phospho Jurkat-pNf-Kb IC90 (human TNF-alpha [2]): 340 pM
First test IC50, IL-23-dependent STAT3 activation (luciferase) (recombinant human IL23 [12]): 0.17 nM
GEOMEAN IC50, IL-23-dependent STAT3 activation (luciferase) (recombinant human IL23 [12]): 0.19 nM
GEOMEAN IC90, IL-23-dependent STAT3 activation (luciferase) (recombinant human IL23 [12]): 0.859 nM
HeLa IL8 Hi-Hu-TNF IC50 (human TNF-alpha [3]): 0.32 nM
HeLa IL8 Hi-Hu-TNF IC90 (human TNF-alpha [3]): 0.53 nM
HeLa IL8 Lo-Hu-TNF IC50 (human TNF-alpha [3]): 0.0092 nM
HeLa IL8 Lo-Hu-TNF IC90 (human TNF-alpha [3]): 0.035 nM
TNF-IL8 Whole Blood IC50 (human TNF-alpha [5]): 0.34 nM
TNF-IL8 Whole Blood IC90 (human TNF-alpha [5]): 0.61 nM
Kd (human TNF-alpha [13]): 0.00411 nM
EC50 (membrane bound TNF-alpha [6]): 0.2 nM
huIL23 MSA IC50 (recombinant human IL23 [7]): 0.2 nM
huIL23 MSA IC90 (recombinant human IL23 [7]): 1.7 nM
CynoIL23 MSA IC50 [8]: 0.077 nM
CynoIL23 MSA IC90 [8]: 1.2 nM
IL23A pSTAT3 (MG) IC50 (recombinant human IL23 [9]): 140 pM
IL23A pSTAT3 (MG) IC90 (recombinant human IL23 [9]): 830 pM
Kd (Linked human IL-23): 0.007 nM
IC50, IL-23-dependent STAT3 activation (DB-STAT3Luc10 luciferase) (recombinant human IL23 [14]): 0.212 nM
IC90, IL-23-dependent STAT3 activation (DB-STAT3Luc10 luciferase) (recombinant human IL23 [14]): 0.965 nM
EC50 (membrane bound TNF-alpha [10]): 0.45 nM
hIL23 pSTAT3 DB assay IC50 (recombinant human IL23 [11]): 300 pM
hIL23 pSTAT3 DB assay IC90 (recombinant human IL23 [11]): 700 pM
B2: Compound E (bispecific antibody)
chain 1: DIQMTQSPSSLSASVGDRVTITCKASRDVAIAVAWYQQKPGKVPKLLIYWASTRHTGVPSRFSGSGSRTDFTLTISSLQPEDVADYFCHQYSSYPFTFGSGTKLEIKGGGSGGGGQVQLVESGGGVVQPGRSLRLSCAASGFIFSSYAMHWVRQAPGNGLEWVAFMSYDGSNKKYADSVKGRFTISRDNSKNTLYLQMNSLRAEDTAVYYCARDRGIAAGGNYYYYGMDVWGQGTTVTVSSLGGGSGASTKGPSVFPLAPSSKSTSGGTAALGCLVKDYFPEPVTVSWNSGALTSGVHTFPAVLQSSGLYSLSSVVTVPSSSLGTQTYICNVNHKPSNTKVDKRVEPKSCDKTHTCPPCPAPEAAGGPSVFLFPPKPKDTLYITREPEVTCVVVDVSHEDPEVKFNWYVDGVEVHNAKTKPREEQYNSTYRVVSVLTVLHQDWLNGKEYKCKVSNKALPAPIEKTISKAKGQPREPQVYTLPPSREEMTKNQVSLTCLVKGFYPSDIAVEWESNGQPENNYKTTPPVLDSDGSFFLYSKLTVDKSRWQQGNVFSCSVMHEALHNHYTQKSLSLSPGK
chain 2: B1 chain 2
notes: GS linkers, isotype IgG1KO-YTE
L929 TNF Cytotox IC50 (human TNF-alpha [4]): 0.0041 nM
L929 TNF Cytotox IC90 (human TNF-alpha [4]): 0.017 nM
